Experimental data taken from patent publication US20100041597A1 (published 2010).

T1: PKC-ε (purified isoform) (Homo sapiens (Human), UniProt Q02156 1-737)
T1 construct: also called PKC-epsilon; PKCepsilon
T1 sequence: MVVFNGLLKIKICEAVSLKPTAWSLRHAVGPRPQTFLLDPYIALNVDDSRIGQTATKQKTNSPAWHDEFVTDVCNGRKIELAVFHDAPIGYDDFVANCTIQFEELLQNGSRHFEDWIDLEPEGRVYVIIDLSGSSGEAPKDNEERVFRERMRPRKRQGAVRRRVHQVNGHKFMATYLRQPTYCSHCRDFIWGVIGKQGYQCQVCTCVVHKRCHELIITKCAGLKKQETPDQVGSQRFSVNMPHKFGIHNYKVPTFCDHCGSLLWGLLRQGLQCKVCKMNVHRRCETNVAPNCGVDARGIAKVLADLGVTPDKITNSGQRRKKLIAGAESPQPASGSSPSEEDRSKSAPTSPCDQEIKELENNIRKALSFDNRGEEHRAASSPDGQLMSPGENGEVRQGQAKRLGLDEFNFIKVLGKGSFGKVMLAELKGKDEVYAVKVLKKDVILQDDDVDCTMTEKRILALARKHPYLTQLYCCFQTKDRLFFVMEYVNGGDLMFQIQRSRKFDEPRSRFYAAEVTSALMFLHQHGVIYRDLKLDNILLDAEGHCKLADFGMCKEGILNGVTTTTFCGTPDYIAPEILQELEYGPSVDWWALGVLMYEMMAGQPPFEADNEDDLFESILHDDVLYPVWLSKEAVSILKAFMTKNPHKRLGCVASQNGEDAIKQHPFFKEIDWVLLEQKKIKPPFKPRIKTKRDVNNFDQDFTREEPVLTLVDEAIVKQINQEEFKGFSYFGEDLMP

T2: PKC-ε (endogenous, human cell extracts) (human, UniProt Q02156 1-737)
T2 construct: Two bands on the blot, said to be alternate splicing variants; also called PKC-epsilon; PKC-ε Band 1
T2 sequence (looked up): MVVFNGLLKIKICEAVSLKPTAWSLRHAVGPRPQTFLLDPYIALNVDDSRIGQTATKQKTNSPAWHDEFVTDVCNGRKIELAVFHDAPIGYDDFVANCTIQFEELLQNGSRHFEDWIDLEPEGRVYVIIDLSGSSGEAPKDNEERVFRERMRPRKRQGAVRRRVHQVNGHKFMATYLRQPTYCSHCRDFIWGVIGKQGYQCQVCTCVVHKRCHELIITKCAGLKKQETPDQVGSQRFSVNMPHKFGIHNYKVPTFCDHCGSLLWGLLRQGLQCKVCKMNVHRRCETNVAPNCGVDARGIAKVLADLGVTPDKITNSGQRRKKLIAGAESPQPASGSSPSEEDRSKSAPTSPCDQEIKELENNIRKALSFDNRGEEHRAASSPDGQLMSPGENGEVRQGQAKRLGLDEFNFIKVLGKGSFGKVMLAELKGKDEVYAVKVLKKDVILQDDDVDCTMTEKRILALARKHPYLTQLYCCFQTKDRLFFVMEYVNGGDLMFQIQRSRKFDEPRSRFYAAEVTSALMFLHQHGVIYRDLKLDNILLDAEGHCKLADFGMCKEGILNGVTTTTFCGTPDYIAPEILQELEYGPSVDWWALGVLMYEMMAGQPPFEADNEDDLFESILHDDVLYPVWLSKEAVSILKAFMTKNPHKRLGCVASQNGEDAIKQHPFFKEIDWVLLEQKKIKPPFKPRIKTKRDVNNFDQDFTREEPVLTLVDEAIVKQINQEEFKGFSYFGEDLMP


Columns and labels:
[1] = biological target: T3, PKC-βII (purified isoform) (Homo sapiens (Human), UniProt P05771 2-621); experiment: summary grade, purified isoform ELISA
T3 construct: also called PKC-beta II
T3 sequence (P05771 other isoform, or with tags, fused parts or gaps limits assumed): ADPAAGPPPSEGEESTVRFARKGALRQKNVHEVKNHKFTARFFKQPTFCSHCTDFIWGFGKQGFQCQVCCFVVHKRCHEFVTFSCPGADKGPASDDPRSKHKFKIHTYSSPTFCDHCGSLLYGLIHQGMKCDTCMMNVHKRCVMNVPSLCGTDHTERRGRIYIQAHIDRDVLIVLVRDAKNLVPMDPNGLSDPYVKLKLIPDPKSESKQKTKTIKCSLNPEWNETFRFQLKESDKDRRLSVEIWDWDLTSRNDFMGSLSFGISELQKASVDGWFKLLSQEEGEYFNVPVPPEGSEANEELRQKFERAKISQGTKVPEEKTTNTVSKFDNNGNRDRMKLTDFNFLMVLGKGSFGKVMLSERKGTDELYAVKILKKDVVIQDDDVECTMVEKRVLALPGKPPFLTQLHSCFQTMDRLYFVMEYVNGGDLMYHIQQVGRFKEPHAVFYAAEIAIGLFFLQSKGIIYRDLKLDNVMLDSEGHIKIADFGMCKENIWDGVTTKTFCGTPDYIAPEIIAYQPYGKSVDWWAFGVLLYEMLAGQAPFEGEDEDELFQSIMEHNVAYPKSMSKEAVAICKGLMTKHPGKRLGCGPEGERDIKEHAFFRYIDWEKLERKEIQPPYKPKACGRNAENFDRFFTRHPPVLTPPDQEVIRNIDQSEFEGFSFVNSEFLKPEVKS

PKC-ε (purified isoform) = biological target: T1, PKC-ε (purified isoform); experiment: summary grade, purified isoform ELISA
[2] = biological target: T4, PKC-βI (purified isoform) (Homo sapiens (Human), UniProt P05771 2-671); experiment: summary grade, purified isoform ELISA
T4 construct: also called PKC-beta I
T4 sequence (P05771 2-671 limits assumed): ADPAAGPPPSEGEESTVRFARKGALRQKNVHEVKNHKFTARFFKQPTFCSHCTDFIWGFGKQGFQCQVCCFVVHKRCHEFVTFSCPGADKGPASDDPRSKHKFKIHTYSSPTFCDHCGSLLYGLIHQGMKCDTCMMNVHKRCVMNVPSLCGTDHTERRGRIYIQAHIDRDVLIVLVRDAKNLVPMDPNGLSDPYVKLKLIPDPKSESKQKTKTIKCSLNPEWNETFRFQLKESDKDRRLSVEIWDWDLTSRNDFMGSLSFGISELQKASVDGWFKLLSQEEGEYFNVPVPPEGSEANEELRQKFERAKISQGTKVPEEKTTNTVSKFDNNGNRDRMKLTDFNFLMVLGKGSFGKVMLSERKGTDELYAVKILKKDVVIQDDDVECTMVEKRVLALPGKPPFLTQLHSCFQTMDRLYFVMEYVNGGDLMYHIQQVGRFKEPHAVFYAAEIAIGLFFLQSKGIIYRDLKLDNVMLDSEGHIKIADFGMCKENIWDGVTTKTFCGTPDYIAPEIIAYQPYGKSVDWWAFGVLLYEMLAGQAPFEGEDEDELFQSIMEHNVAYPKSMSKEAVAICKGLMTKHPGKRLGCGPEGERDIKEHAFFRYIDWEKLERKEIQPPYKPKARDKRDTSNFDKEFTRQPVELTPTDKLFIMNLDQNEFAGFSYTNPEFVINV

[3] = biological target: T2, PKC-ε (endogenous, human cell extracts); experiment: Protocol B blot competition, IMR-32 extract, competitor anti-PKC-ε Ab, Band 2; PRE 20 µg
Method: (§1) The ability of the peptides PRE 2 and PRE 3 (see Table 3) to interfere with the binding of a PKC-α-specific polyclonal antibody (Santa Cruz Biotechnology, Inc.) to PKC-α was determined using a modified version of the protocol outlined above in which the test peptide was added directly to the cell extract prior to electrophoresis at a concentration of either 5× or 15× the concentration of the protein applied to each well of the gel for the Western blots (20 μg).
(§2) Peptides PRE 2, PRE 3 and PRE 4 (see Table 3) were tested for their ability to interfere with the binding of isoform-specific polyclonal antibodies (Santa Cruz Biotechnology, Inc.) to PKC-ε using the general protocol described in Example 3. Two bands, representing alternate splicing variants of PKC-ε, were identified on the Western blot using this anti-PKC-ε antibody.

[4] = biological target: T2, PKC-ε (endogenous, human cell extracts); experiment: Protocol B blot competition, IMR-32 extract, competitor anti-PKC-ε Ab, Band 1; PRE 20 µg
Method: as §1, §2

[5] = biological target: T2, PKC-ε (endogenous, human cell extracts); experiment: Protocol B blot competition, IMR-32 extract, competitor anti-PKC-ε Ab, Band 2; PRE 100 µg
Method: as §1, §2

[6] = biological target: T2, PKC-ε (endogenous, human cell extracts); experiment: Protocol B blot competition, IMR-32 extract, competitor anti-PKC-ε Ab, Band 1; PRE 50 µg
Method: as §1, §2

[7] = biological target: T2, PKC-ε (endogenous, human cell extracts); experiment: Protocol B blot competition, IMR-32 extract, competitor anti-PKC-ε Ab, Band 1; PRE 100 µg
Method: as §1, §2

| Binder | binding result [1] | binding result (PKC-ε (purified isoform)) | binding result [2] | band intensity [3] | inhibition (%) [3] [%] | relative intensity (%) [3] [%] | band intensity [4] | inhibition (%) [4] [%] | relative intensity (%) [4] [%] | band intensity [5] | inhibition (%) [5] [%] | relative intensity (%) [5] [%] | band intensity [6] | inhibition (%) [6] [%] | relative intensity (%) [6] [%] | band intensity [7] | inhibition (%) [7] [%] | relative intensity (%) [7] [%] |
| --- | --- | --- | --- | --- | --- | --- | --- | --- | --- | --- | --- | --- | --- | --- | --- | --- | --- | --- |
| Ac-KDAQNLI-NH2 (Synthetic peptide; also called peptide PRE 12; Ac-KDAQNLI-NH2) [PRE 12] | – | no binding (tested: 200 µM) | no binding (tested: 200 µM) | – | – | – | – | – | – | – | – | – | – | – | – | – | – | – |
| Ac-AKGIQEVKGGDAQNLIGISI-NH2 (Synthetic peptide; also called peptide PRE 3) [PRE 3] | – | – | – | 0 | 100 | 0 | 5.12 | 99 | 0.12 | 0 | 100 | 0 | 0 | 100 | 0 | 0 | 100 | 0 |

Next, values leading:

| binding result [1] | binding result (PKC-ε (purified isoform)) | binding result [2] | band intensity [3] | inhibition (%) [3] [%] | relative intensity (%) [3] [%] | band intensity [4] | inhibition (%) [4] [%] | relative intensity (%) [4] [%] | band intensity [5] | inhibition (%) [5] [%] | relative intensity (%) [5] [%] | band intensity [6] | inhibition (%) [6] [%] | relative intensity (%) [6] [%] | band intensity [7] | inhibition (%) [7] [%] | relative intensity (%) [7] [%] | Binder |
| --- | --- | --- | --- | --- | --- | --- | --- | --- | --- | --- | --- | --- | --- | --- | --- | --- | --- | --- |
| no binding (tested: 200 µM) | – | – | – | – | – | – | – | – | – | – | – | – | – | – | – | – | – | Ac-KDANQLIGISI-NH2 (Synthetic peptide; also called peptide PRE 6) [PRE 6] |
| no binding (tested: 200 µM) | no binding (tested: 200 µM) | no binding (tested: 200 µM) | – | – | – | – | – | – | – | – | – | – | – | – | – | – | – | Ac-RDAQNLI-NH2 (Synthetic peptide; also called peptide PRE 13; Ac-RDAQNLI-NH2) [PRE 13] |
| – | – | – | 153 | 46.6 | 53.3 | 184 | 42.9 | 57.1 | 0 | 100 | 0 | 0 | 100 | 0 | 0 | 100 | 0 | Ac-KDAQNLIGISI-NH2 (Synthetic peptide; also called peptide PRE 4) [PRE 4] |
